By IC50 is commonly meant the concentration that gives 50% inhibition. What is called % inhibition is the share of the control response that was lost under treatment.

Here are results for ten molecules from patent US20070286861A1, “Immunoglobulins” (published 2007).

Changes are numbered by the printed parent chain. Like-named read-outs stand apart in the source and are kept apart here.

Assay [1] concerns the target T1, human Oncostatin M (hOSM) (human).
T1 chain: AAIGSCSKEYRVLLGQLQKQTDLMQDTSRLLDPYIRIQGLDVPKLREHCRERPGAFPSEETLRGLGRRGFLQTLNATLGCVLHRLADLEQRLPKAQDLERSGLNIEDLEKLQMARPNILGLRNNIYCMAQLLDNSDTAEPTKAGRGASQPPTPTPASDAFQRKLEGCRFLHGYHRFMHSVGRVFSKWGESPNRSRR

The target of assay [2] is T1, human Oncostatin M (hOSM). The assay is described as follows: gp130 inhibition ELISA (antibody pre-incubated with OSM; OSM bound to plate-coated gp130-Fc detected). On the technique in general: In an ELISA, binding on a coated surface is turned into a signal by an enzyme label.
The target in assay [3] is T2, glycosylated human OSM produced in CHO cells (human).
T2 sequence (chain, glycosylated (CHO cell glycosylated)): T1 chain

In assay [4] the target is T3, glycosylated human OSM produced in CHO cells (human, glycosylated (CHO cell glycosylated)).
T3 chain: T1 chain
The assay is described as follows: gp130 inhibition ELISA (Table 4; OSM taken as CHO produced hOSM of FIG. 17).

Assay [5] addresses T4, cynomolgus monkey OSM (cOSM) (cynomolgus monkey).
T4 chain: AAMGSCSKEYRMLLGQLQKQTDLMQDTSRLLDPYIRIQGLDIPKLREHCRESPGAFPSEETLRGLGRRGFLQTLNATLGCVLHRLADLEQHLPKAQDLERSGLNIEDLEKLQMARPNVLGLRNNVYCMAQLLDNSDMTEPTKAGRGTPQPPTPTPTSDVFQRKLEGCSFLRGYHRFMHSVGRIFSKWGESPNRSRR
The assay is described as follows: gp130 inhibition ELISA.

The target of assay [6] is T1, human Oncostatin M (hOSM). The assay is described as follows: gp130 inhibition ELISA.
Assay [7] concerns the target T4, cynomolgus monkey OSM (cOSM). The assay is described as follows: gp130 inhibition ELISA, CHO supernatant.
Assay [8] addresses T1, human Oncostatin M (hOSM). The assay is described as follows: gp130 inhibition ELISA, CHO supernatant; legend: NA: inhibition is less than 50%.
The target in assay [9] is T1, human Oncostatin M (hOSM). The assay is described as follows: gp130 inhibition ELISA, CHO supernatant.
Assay [10] has as its target T4, cynomolgus monkey OSM (cOSM). The assay is described as follows: gp130 ELISA.
Assay [11] concerns the target T1, human Oncostatin M (hOSM). The assay is described as follows: gp130 ELISA.
Assay [12] addresses T4, cynomolgus monkey OSM (cOSM). The assay is described as follows: gp130 inhibition ELISA, CHO supernatant; legend: NA: inhibition is less than 50%.
For assay [13] the target is unchanged.
Assay [14] has as its target T1, human Oncostatin M (hOSM).

B1: 15E10 murine antibody (antibody, V domains shown)
VH: QVQLKQSGPGLVQPSQSLSITCTVSGFSLTNYGVHWVRQSPGKGLEWLGVIWRGGSTDYNAAFMSRLSITKDNSRSQVFFKMNSLQADDTAIYYCAKSPNSNFYWYFDVWGTGTTVTVSS
VL: QIVLTQSPTIMSASPGEKVTMTCSGSSSVSYMYWYQEKPGSSPRLLIEDTSNLASGVPARFSGSGSGTSYSLTISRMEAEDAATYYCQQWSSYPPTFGSGTKLEIK
Consider B1, for which the IL-6 release from KB cells (KB cell assay), IC50 in [1] came out at 0.195 mg/L; in [3], 0.053 mg/L. Moreover, the results for the IC50 in assay [2] and in [4] were 0.059 mg/L and 0.009 mg/L, respectively.

B2: 15E10 chimaeric antibody (antibody, V domains shown)
VH: B1 VH
VL: B1 VL
For the molecule B2, the IL-6 release from KB cells (KB cell assay), IC50 worked out at 0.11 mg/L in assay [1] and 0.079 mg/L in [3]. Further, the IC50 came to 0.06 mg/L in assay [5], 0.07 mg/L in assay [6], 0.036 mg/L in [2] and 0.019 mg/L in assay [4].

B3: humanised 15E10 antibody B3L2 (wild type Fc) (antibody, V domains shown)
VH: QVQLVESGGGVVQPGRSLRLSCAASGFSLTNYGVHWVRQAPGKGLEWVAVIWRGGSTDYNAAFMSRFTISKDNSKNTLYLQMNSLRAEDTAVYYCAKSPNSNFYWYFDVWGRGTLVTVSS
VL: EIVLTQSPATLSLSPGERATLSCSGSSSVSYMYWYQQKPGQAPRLLIEDTSNLASGIPARFSGSGSGTDYTLTISNLEPEDFAVYYCQQWSSYPPTFGQGTKLEIKR
With B3, in assay [3], the IL-6 release from KB cells (KB cell assay), IC50 is 0.123 mg/L. Also, 0.035 mg/L corresponded to half-maximal inhibition in [4] (IC50).

B4: humanised 15E10 antibody B4L1 (antibody, V domains shown)
VH: B3 VH with F67L
VL: EIVLTQSPATLSLSPGERATLSCSGSSSVSYMYWYQQKPGQAPRLLIYDTSNLASGIPARFSGSGSGTDFTLTISNLEPEDFAVYYCQQWSSYPPTFGQGTKLEIK
For B4, the IC50 in assay [7] is 0.167 mg/L. The “% inhibition” value in assay [8] was < 50%.

B5: humanised 15E10 antibody B4L2 (antibody, V domains shown)
VH: B3 VH with F67L
VL: B3 VL
For B5, the concentration for half-maximal inhibition (IC50) in [7] turned out to be 0.04 mg/L; in assay [9], 0.048 mg/L.

B6: humanised 15E10 antibody B1L2 (antibody, V domains shown)
VH: B3 VH with K71R, K97R
VL: B4 VL with Y48E, F70Y
On to B6, for which the 50% inhibitory concentration (IC50) in [7] amounted to 0.11 mg/L; in assay [9], 0.334 mg/L.

B7: 10D3 murine antibody (antibody, V domains shown)
VH: EVQLQQSGPELVKPGASVKISCKASGYIFTDYNMDWVKQSHGKKLEWIGDINPNNGGTIDNQKFKDKATLTVDKSSSTAYMELRSLTSEDTAVYYCARGIYYYGSHYFDYWGQGTTLTVSS
VL: QIVLTQSPAIMSASPGEKVTMTCSATSSVSVMHWFQKKSGTSPKRWIYDTSKLASGVPTRFSGSGSGTSYSLTISSMEAEDTATYYCQQWSSNPLTFGSGTKLELK
B7: the IL-6 release from KB cells (KB cell assay), IC50 in assay [1] was determined as 0.114 mg/L. In addition, half-maximal inhibition in [2] (IC50) required 0.107 mg/L.

B8: 10D3 chimaeric antibody (antibody, V domains shown)
VH: B7 VH
VL: B7 VL
B8 returned an IL-6 release from KB cells (KB cell assay), IC50 in assay [1] of 0.107 mg/L. Further, the IC50 was 0.057 mg/L in assay [2], 0.246 mg/L in assay [10] and 0.032 mg/L in assay [11].

B9: humanised 15E10 antibody B1L1 (antibody, V domains shown)
VH: QVQLVESGGGVVQPGRSLRLSCAASGFSLTNYGVHWVRQAPGKGLEWVAVIWRGGSTDYNAAFMSRFTISRDNSKNTLYLQMNSLRAEDTAVYYCARSPNSNFYWYFDVWGRGTLV
VL: B4 VL
On to B9, for which the “% inhibition” value in [12] and in [8] was < 50% throughout.

B10: Humanised antibody 10D3 DLE (antibody, V domains shown)
VH: EVQLVQSGAEVKKPGASVKVSCKASGYIFTDYNMDWVRQAPGQKLEWIGDINPNNGGTIDNQKFKDRATLTVDKSTSTVYMELSSLRSEDTAVYYCARGIYYYGSHYFDYWGQGTLVTVSS
VL: EIVLTQSPSSLSASVGDRVTITCSATSSVSVMHWFQKKPGKAPKRWIYDTSKLASGVPSRFSGSGSGTDYTLTISSLQPEDFATYYCQQWSSNPLTFGGGTKVDIKR
Regarding B10, the IL-6 release from KB cells (KB cell assay), IC50 in [13] amounted to 0.07 mg/L; in [14], 0.205 mg/L. Besides, the IC50 in assay [10] turned out to be 0.059 mg/L; in assay [11], 0.021 mg/L.
